Results on 1 protein are retold here after publication PMC5708649, “A novel Porphyromonas gingivalis enzyme: An atypical dipeptidyl peptidase III with an ARM repeat domain” (PLoS ONE, 2017).

Substrate in series [1]: Cc1cc(=O)oc2cc(NC(=O)[C@H](CCCNC(=N)N)NC(=O)[C@@H](N)CCCNC(=N)N)ccc12
The series can be described thus: purified protein, by the assay type. Conditions: pH 8.0; 26.0 °C.

Substrate in series [2]: N=C(N)NCCC[C@H](NC(=O)[C@@H](N)CCCNC(=N)N)C(=O)Nc1ccc2ccccc2c1
Kind of series: purified protein, by the assay type. Conditions: pH 8.0; 26.0 °C.

B1: Full length PgDPP III (1–886 aa) (Porphyromonas gingivalis W83) (protein)
chain: MTKETTQHRSGERIARFADIEVLSYRADLFGTLTPKQRMLCYHLSEAALRGRDITTIQNCRYNLWVRSLMERIYTHLSKSERTDDFALLEEYLFCIWFANGIHHHYSGAKFIARFSPGFLRAALREAGVELEPEEQVLLERVLYDTDFLPKQTEQSGEEDIIKASSVNFYAPGITRAEAESHYKNLIEALPENEKSCPPSFGLNTRLIRSTSGELKDEVCCIDGLYGPAIEAVVASLEAAIPYTENEEQAACIRLLCDYYRTGDIRLYDRFCIRWVENNRTRIDFINGFTEVYADPIGIHGSWEGLVHMQDEEAGRRTRIISEHAGWFEAHSPIDARFRKKNPHGISATVVNVLTIAGDSYPATPIGINLPNADWIRAEHGSKSVTIDNITDAYNHAARGTGLYEEFIPDEEVRRHVELHADLTDSLHTDLHECLGHGSGQLLPGVPGDALGEHASTLEETRADLFALYFLADPKMIELGLLTDPDAYKANYYKYMLNGLMTQLVRIKRGEEIEEAHMRNRALIARYVLEHAERPGAMSLVCEEGKTALVIKDYEAVRAIIAGLLTEVQRIKSEGDYTAGKALVERYAVHVDPLLHEEVLTRYAKLDIAPYKGFVNPRLRPVYNSEGRLTDATIEYTEGYAEQMLRYSAEYSFLPTDSPLLQEARRLRSHLRRAMDGVLSASMREKGLHYGINFGVTREHLLRLARTADASAPLADYLWRRDVRETKILATMIFPAEELTHEQATRLLREADNVELREQLTANLLERMPEAIRSIGRWIESKETTPDMMTGVLTLAARLFTRGIFPEDVPAEKLLTLAILHLSDEEQKAELRRASALLLKRYGRGSAERTKKVLCLLPESSQDTAPVLYELCEDIRFELDFYPKDE
As usually defined, the Km is the concentration of substrate that gives half-maximal velocity. In general, kcat refers to the maximal rate divided by the concentration of active sites. As usually defined, the kcat/Km is the second-order rate constant that governs catalysis at low substrate concentration. For the protein B1, in series [1], the Km came out at 2.56 ± 0.32 µM, the kcat is 0.29 ± 0.11 s⁻¹ and the kcat/Km is 113000 M⁻¹ s⁻¹. Also, in series [2], the Km worked out at 0.97 ± 0.16 µM, the kcat is 0.75 ± 0.13 s⁻¹ and the catalytic efficiency (kcat/Km) stood at 773000 M⁻¹ s⁻¹.
